Test: soluble on expression in E. coli; label from the status in PepcDB or PDB records

| Sequence | soluble on expression in E. coli |
| --- | --- |
| MSSAFLADRRLIRVSGTGAEEFLNNLITADIENLPEGETRASALLTPQGKILFDFLIWRDGRDYLVETGAAEQDALLRRLTMYKLRAPVELKAETVEGIGVFWGNSVTEAGVRDGRFAKAGVDLRRVPGASASGEAAAYEALRVEHGIAESGRDYALQDAFPHDVLMDVNDGVSFKKGCFVGQEVVSRMKHRGTARRRVVTVSADGTLPASGTEITANGKPVGALGTVYGNRALAIVRTDRVADALAAGTPLLADNVAVSVALPAWSGLSFPAADPAARAED | not soluble |
| MSSDANSDDPFSKPIVRKRFQATLAQQGIEDDQLPSVRSSDSPDVPDTPDVPVNQLSSPPLSLPETLSEGNAETNLSDDSEPEMLSQSSTSSLNRRMEDSAIDPSRGTRKSQSRGFDYDPAGERTTAPVQKKKKDEIDMGGAKFFPKQEKKHVYTHKWTTEEDDEDEKTISSSSNRYSSRPNQPAVSARPRQPVYATTSTYSKPLASGYGSRVRHIKEANELRESGEYDDFKQDLVYILSSLQSSDASMKVKCLSAISLAKKCVSPDFRQFIKSENMTKSIVKALMDSPEDDLFALAASTVLYLLTRDFNSIKIDFPSLRLVSQLLRIEKFEQRPEDKDKVVNMVWEVFNSYIEKQEVGGQKVSFDMRKESLTPSSLIIEALVFICSRSVNDDNLKSELLNLGILQFVVAKIETNVNLIADNADDTYSILILNRCFRILESSSVFHKKNQAFLISHRSNILISSLAKFLQVILDRVHQLAEEEVKKYISCLALMCRLLINISHDNELCCSKLGQIEGFLPNAITTFTYLAPKFGKENSYDINVMMTSLLTNLVERCNANRKVLIAQTVKMVIPGHDVEEVPALEAITRLFVYHESQAQIVDADLDRELAFDEGGCGDEEEEEEGGDESSDEDGVRKDGRLDRNKMDRMDQVDVVHALQQVMNKASAHMEGSVIASYHALLVGFVLQQNEDHLDEVRKHLPGKNFQNMISQLKRLYDFTKATMAKRVESNSGFRAIERVIEYLERLE | not soluble |
| MSSEEDKSVEQPQPPPPPPEEPGAPAPSPAAADKRPRGRPRKDGASPFQRARKKPRSRGKTAVEDEDSMDGLETTETETIVETAEIKEQSAEEDAEAEVDNSKQLIPTLQRSVSEESANSLVSVGVEAKISEQLCAFCYCGEKSSLGQGDLKQFRITPGFILPWRNQPSNKKDIDDNSNGTYEKMQNSAPRKQRGQRKERSPQQNIVSCVSVSTQTASDDQAGKLWDELSLVGLPDAIDIQALFDSTGTCWAHHRCVEWSLGVCQMEEPLLVNVDKAVVSGSTERCAFCKHLGATIKCCEEKCTQMYHYPCAAGAGTFQDFSHIFLLCPEHIDQAPERSKEDANCAVCDSPGDLLDQFFCTTCGQHYHGMCLDIAVTPLKRAGWQCPECKVCQNCKQSGEDSKMLVCDTCDKGYHTFCLQPVMKSVPTNGWKCKNCRICIECGTRSSSQWHHNCLICDNCYQQQDNLCPFCGKCYHPELQKDMLHCNMCKR | not soluble |
| MSSENAQLKKDLIKAVLSPLFPTATEGGENMDSNLKALLDAAIDQKVDESETVTAESILDPSLPARWIFARITPGTTISIVTDSGDMIGPVVFVAFDQVHGIVFVTQESSVTPAGQATTLIDVDKVESVTFFSLEHHHHHH | soluble |
| MSSERQLAGRIVVPGEPLPEEVEASPPYVIDYKGVKRATVVGLLREKGDGGGRAFVKLKEIYVPQAGDVVIGLIQSVGIMNWFVDINSPYVAVLSVQDFLGRPFNPAVDDMQSLLKVGDYIKAKVVAFDKTRSPLLTVQGEGLGRIVRGKIVEISPAKVPRVIGRKMSMLKTLEEKTECKIFVARNGRIHLECPNEDLEAIAVMAIKIIDEEAYTSGLTKRIIKFIEEERRIREV | soluble |
| MSSFVLDFQEIEKTQLSLVGGKGLNLGALSNMQGIQVPEGFCVTTAGYEKAIEQNEELQALLQQLTKLKREERVRIGEISKKIRENIMAVQIPSDVVEAVAHYLSRFGNEHAYAVRSSATAEDLPYASFAGQQDTYLNIIGENAILQHVRKCWASLFTDRAVMYRMQNGFEHNQVSICVVVQKMVFPQASGILFTADPITSNRKVLSIDASFGLGEALVSGLVSADNYKVKEGEIIDKMIATKKLAIYALKEGGTETKQNDPVQQKIQTLSDQQILQLVQIGRQIEAYFGCPQDIEWCLVDHTFYIVQSRPITTLYPIPEENDEGNHVYISVGHQQMMTDAMKPLGLSFFLLTTNAPMRKAGGRLFVDATQQLVLPASRDYLINTLGKSDPLVRDALTTIIERDDFITLLPDEEKEKSASKSKPPVSSQPEIENDPAIVTELIRNSEASLEELKQNMQLKSGVDVFDFILEDIQQLKKVLFNPQSIAVIMAGMNASTWINEKMEQWLGEKNAADMLSQSVQNNITSEMGLALMDVADAIRPYPEVITYLQHVEDDSFLDELVQYKGGEKARDTIVAFLNKYGMRCSGEIDITKTRWSEKPTTIIPMILNNIRDFEAGASKQKFEKGLQEALNKEEELLDRLQHLPKGKQKVEETKRMIRNIRNFIGYREYPKYGMINRYFIYKQALLKEAEQLVQSGVICEVDDIYYLTFEELHEVVRTNKLDYELIQKQKNDYKLYEKLTPPRVMTSDGEIITGKYKRENLPADAIVGLPVSSGVVEGRARVILNMEEANLEEGDILVTAFTDPGWTPLFVSIKGLVTEVGGLMTHGAVIAREYGLPAVVGVENATKRIKDGQRIRVHGTEGYIEML | not soluble |
| MSSGSSNFLLVPIPEYPVLDCVPNKNVKIVVLGASNVGKTALIVRFLTKRFIGDYEANTGALYSRKINLDGEQVSLQVQDTPCVSLQDDADGLYCQEQINRSITGRTVMCSSSPSLTSTATAPSSLSTNMCAESTPAVTSLSSSWETRATFCEPDRSQIPKGRRWRMNWEGYTLRLRPGRTTRASRQLFCTYVRR | not soluble |
| MSSHFVDWLIAHGYEQDAFDRPDVGPAGSFGGKTRSGDPVEKEPVIFIHGSGDTALFTQQPLATGFSRSIQYFLEQNYTEAELYATTWGDTWGSGSMLDTYSTIHTCGNLIYLRRFLEAVIGYTGAKKVDIIAHSVGVPLMRKVVKGGTLIGTDGNCTLGPPLGAKVDTFLGIAGPNFGLCVCQLAQTVPAWCNALDGLYPGYTCQDQLWCGYTSGSCKQENYSNLLQKTNDDPNREGDHVYAMWSDVDEVLLNRGMVWGKPTARIPGMNGRWISDRNGHVAMKDLTELRQFEAIVHHSI | not soluble |
| MSSIGTGYDLAASTFSPDGRIFQVEYAQKAVDNAGTMIAIRGKNGVVVVADKLISSKLYTDNANPRMFNVNDNVGVAVAGNYPDGFALKNYAYGEAMKWLKDYREPMPIQNIANSVAEYIHIHTLGISRPFGAGAFFMSWNKQTGGRLFLVEPSGLNYEYKAWAVGKHRQAAKAEIEKLKIEELDVNQLVKEAARIIMVVRDENKDKNVQIEMGWVGEQTNGKYEEVPSEVVTAAEEWAIAKLDEDDMDD | not soluble |
| MSSKNTAEVILGGKVIKLGGYESEEYLQRVASYINNKITEFNKEESYRRMSAELRTDMMYLNIADDYFKAKKMADSLSLDIENKDKEIYDLKHELIAAQIKAESSAKEIKELKSEINKYQKNIVKLETELNDSKK | soluble |
| MSSLARGISRRRTEVATQVEAAPTGLRPNAVVGVRLAALADQVGAALAEGPAQRAVTEDRTVTGVTLRAQDVSPGDLFAALTGSTTHGARHVGDAIARGAVAVLTDPAGVAEIAGRAAVPVLVHPAPRGVLGGLAATVYGHPSERLTVIGITGTSGKTTTTYLVEAGLRAAGRVAGLIGTIGIRVGGADLPSALTTPEAPTLQAMLAAMVERGVDTVVMEVSSHALALGRVDGTRFAVGAFTNLSRDHLDFHPSMADYFEAKASLFDPDSALRARTAVVCIDDDAGRAMAARAADAITVSAADRPAHWRATDVAPTDAGGQQFTAIDPAGVGHHIGIRLPGRYNVANCLVALAILDTVGVSPEQAVPGLREIRVPGRLEQIDRGQGFLALVDYAHKPEALRSVLTTLAHPDRRLAVVFGAGGDRDPGKRAPMGRIAAQLADLVVVTDDNPRDEDPTAIRREILAGAAEVGGDAQVVEIADRRDAIRHAVAWARPGDVVLIAGKGHETGQRGGGRVRPFDDRVELAAALEALERRA | soluble |
| MSSNAQAIAGLEDRSAIPPTALKATLDHRLGEAAPSDYAKTLLASADAPTLRHLLGLGDAAVMDTGSGKNLDADLLDGYHGTYYLQWRNLQNTPQTYPPSAHQHASSDIPELASQLDTLVKKTGSLMTGSLQSQGTLIGDALGNGRIPALKIGNDCEFWDNNIPYAATFRSGTSPAIAQLFFGTSNHCYFGTSTKNTSTVIGAKTGLLWIETAGNYYYQQHDTTHVAFYKKNGGHAFFWRRSDSGGSGSTNEVQLMALEDNGNLSVKGTIVSAGGYAQGSSRKLKDIEGPLPYGLAEIEQLTPLIGRYKPSYTPDGRRRLFLEAEQLLDLMPETVNPEGIPFQGAYVPSVNLDQLLPVLVNAIAQLSAKVNALTDAPRHAEKLEHHHHHH | not soluble |
| MSSNFRHQLLSLSLLVGIAAPWAAFAQAPISSVGSGSVEDRVTQLERISNAHSQLLTQLQQQLSDNQSDIDSLRGQIQENQYQLNQVVERQKQILLQIDSLSSGGAAAQSTSGDQSGAAASTTPTADAGTANAGAPVKSGNANTDYNAAIALVQDKSRQDDAMVAFQNFIKNYPDSTYLPNANYWLGQLNYNKGKKDDAAYYFASVVKNYPKSPKAADAMFKVGVIMQDKGDTAKAKAVYQQVISKYPGTDGAKQAQKRLNAM | soluble |
| MSSQIRQNYSTEVEAAVNRLVNLYLRASYTYLSLGFYFDRDDVALEGVCHFFRELAEEKREGAERLLKMQNQRGGRALFQDLQKPSQDEWGTTPDAMKAAIVLEKSLNQALLDLHALGSAQADPHLCDFLESHFLDEEVKLIKKMGDHLTNIQRLVGSQAGLGEYLFERLTLKHD | soluble |
| MSSRKGKASAHISYEDENDDLIDEINTFHNKDRKVEKGAIHKRKTFNRPEEVLNVEAEASDSSEDDGSDFDDDDVNDITDNKWGKKRKDFYGTGFVDKDWGGMREEEMEDAQLEEEDALTRQKQIDKSTAAIADLFDDDDEDEEEKEETVEVETVLEFNEENARTKNKKIVKTLEQFEARKRIFDLVVKPLENVIKQIPKCALRSQLVYVAQTYASYLMNTAFLLNLRAKQFSNEKLDDPLVDIHPVVESLKRLEKKITECEDFLHSNSDHLDELKKWAESEPENMEELISKVGDVQLTKKNFGAIMNNNLSTITSSDNTSIHPHFTPMDADEKRKASDKVAKNREYAERRGKKKAKTSKTKNRRKVHAIEKRVKSQIGNVRREMQKYSGETSGIRASTIKSTKLIA | not soluble |
| MSSSIREEVHRHLGTVALMQPALHQQTHAPAPTEITHTLFRAYTRVPHDVGGEADVPIEYHEKEEEIWELNTFATCECLAWRGVWTAEERRRKQNCDVGQTVYLGMPYYGRWLLTAARILVDKQFVTLTELHNKIVEMRERVASGQGLGEYLPPKAK | soluble |
| MSSSTSQDFVSRPVIKKVFAKLQKEGDGAVVRRGISRSEQKLLDPFLMLDEFSVSPPAGFPDHPHRGITHQDFKGHKGTIYAGDVQWMTAGRGIIHSEMPEEEVNKEPNYQELSHSDIPKAEQNGVEVKVIAGESMGIQSPVYTRTPTMFLDFTLQPGAQIHQNVPESWNAFAYILESGEGGGVFSSSNSSPIPAHSVVVFGPGNDGVSVWNKSSSKQLRFVLIAGEPIGEPVVQYGPFVMNTQAEIDMTIEDYHYGKNGFEMAKYWRSQ | not soluble |
| MSTAQAVKIGIAEMEVVIAPNVIRTCGLGSCVGVVIYDAGKAVAGMAHVMLPHSSMARGGVINAAKYADTAVEALVQLVIAAGGRKGMLKAKLAGGAQMFSFSTVGGDMMRIGARNVEEVKKQLERLHIPVVAEDVGGHSGRTIEFNPQTGVLSIRTAAQEIKEI | not soluble |

— the DeepSol protein solubility set
